The source of these data is the Human Domainome abundance scans (Beltran et al. 2025).

± gives the uncertainty stated by the source.

B1: Gamma-crystallin C, residues 4 to 79; numbered along this chain, P07315 (parent)
chain: ITFYEDRAFQGRSYETTTDCPNLQPYFSRCNSIRVESGCWMLYERPNYQGQQYLLRRGEYPDYQQWMGLSDSIRSC

This data set covers variants of B1. The experiment in a line: abundance fitness (aPCA) (normalised: wild type 0, dead -1); higher = more abundant; growth selection in yeast, the domain comes from the species named. Particulars: Homo sapiens.
Turning to ITFYEDRAFQGRSYETTTDCPNLQPYFSRCNSIRVESGCWMLPERPNYQGQQYLLRRGEYPDYQQWMGLSDSIRSC [Y43P], the abundance fitness was -1.03 ± 0.45.
Then ITFYEDRAFQGRSYETTTDCPNLQPYFSRCNSIRVESGCWMLYERPFYQGQQYLLRRGEYPDYQQWMGLSDSIRSC [N47F], with -0.101 ± 0.33; and ITFYEDRAFQGRSYETTTDCPNLQPYFSRCNSIRVESGCWMLYERPSYQGQQYLLRRGEYPDYQQWMGLSDSIRSC [N47S], with -0.115 ± 0.085; and ITFYEDRAFQGRSYETTTDCPNLQPYFSRCNSIRVESGCWMLYERPTYQGQQYLLRRGEYPDYQQWMGLSDSIRSC [N47T], with -0.1 ± 0.11.
Take ITFYEDRAFQGRSYETTTDCPNLQPYFSRCNSIRVESGCWMLYERPNYQGQQYLLRRGEYPDYQQWMGLMDSIRSC [S70M]: the abundance fitness is -0.132 ± 0.097.
Regarding ITFYEDRAFQGRSYETTTDCPNLQPYFSRCNSIRVESGCWMLYERPNYQKQQYLLRRGEYPDYQQWMGLSDSIRSC [G50K], the abundance fitness is -0.574 ± 0.25.
For ITFYEDRAFQGRSYETTTDCPNLQPYFSRCNSIRVESGCWMLYPRPNYQGQQYLLRRGEYPDYQQWMGLSDSIRSC [E44P], the abundance fitness is -0.283 ± 0.15.
On to ITFYEDRAFQGRSYETTTDCPNLQPYFSRCNSIRVESGCWMLYERPNYQGQQYLLRRGEFPDYQQWMGLSDSIRSC [Y60F], for which the abundance fitness is -0.198 ± 0.28.
For ITFYEDRAFQGRSYETTTDCPNLWPYFSRCNSIRVESGCWMLYERPNYQGQQYLLRRGEYPDYQQWMGLSDSIRSC [Q24W], the abundance fitness came out at 0.034 ± 0.075.
As for ITFYEDRAFQGREYETTTDCPNLQPYFSRCNSIRVESGCWMLYERPNYQGQQYLLRRGEYPDYQQWMGLSDSIRSC [S13E], the abundance fitness was -0.104 ± 0.09.
With ITFYEDRAFQGRSYETTTDCPNLQPYFSRCNSIRVESGCWKLYERPNYQGQQYLLRRGEYPDYQQWMGLSDSIRSC [M41K], the abundance fitness was -0.056 ± 0.14.
With ITFYEDRAFQGRSYETTTDCPNLQPYFSRCNSIRVESGCWMLYERPNYQGQQWLLRRGEYPDYQQWMGLSDSIRSC [Y53W], the abundance fitness is 0.084 ± 0.085.
ITFYEDRAFQGRSYETTTDCPNLQPYFSRCNSIRVESGCVMLYERPNYQGQQYLLRRGEYPDYQQWMGLSDSIRSC [W40V]: the abundance fitness came to 0.088 ± 0.11.
In the case of ITFYEDWAFQGRSYETTTDCPNLQPYFSRCNSIRVESGCWMLYERPNYQGQQYLLRRGEYPDYQQWMGLSDSIRSC [R7W], the abundance fitness was -0.086 ± 0.11.
Regarding ITFYEDRAFQGRSYETTTDCPNLQPYFSRCNSIRVESGCWMLYERPNYQGQQYLLRRGEYPDYQQWMGLSTSIRSC [D71T], the abundance fitness is -0.059 ± 0.12.
On to ITFYEDRAFQGRSYETTTDCPNLQPYFSRCNSIRVESGCWMLYERPNYQGQQYLLRRGEYPDYQQWMGLSCSIRSC [D71C], for which the abundance fitness was -0.017 ± 0.11.
Turning to ITFYEDRAFQGRSYETTTDCPNLQPYFSRCNSIRVESGCWMLYERPNYQGQQYLLRRGEYPDYQQWMGLSWSIRSC [D71W], the abundance fitness is -0.02 ± 0.14.
As for ITFYEDRAFQGRSDETTTDCPNLQPYFSRCNSIRVESGCWMLYERPNYQGQQYLLRRGEYPDYQQWMGLSDSIRSC [Y14D], the abundance fitness is -0.895 ± 0.26.
As for ITFYEDRAFQGRSCETTTDCPNLQPYFSRCNSIRVESGCWMLYERPNYQGQQYLLRRGEYPDYQQWMGLSDSIRSC [Y14C], the figure is -0.227 ± 0.15; as for ITFYEDRAFQGRSPETTTDCPNLQPYFSRCNSIRVESGCWMLYERPNYQGQQYLLRRGEYPDYQQWMGLSDSIRSC [Y14P], -0.922 ± 0.19; as for ITFYEDRAFQGRSYETTTDCPNLQPYFSRCNSIRVESGCWMLYERPNYQGQRYLLRRGEYPDYQQWMGLSDSIRSC [Q52R], -0.072 ± 0.073.
As for ITFYEDRAFQGRSYETTTDCPNLQPYFSRCNSIRVESGCWMLYERPNYQGQQYLLRIGEYPDYQQWMGLSDSIRSC [R57I], the figure is -0.053 ± 0.16; as for ITFYEDRAFQGRSYETTTDCPHLQPYFSRCNSIRVESGCWMLYERPNYQGQQYLLRRGEYPDYQQWMGLSDSIRSC [N22H], -0.176 ± 0.16.
Consider ITFYEDRAFQGRSYETTTDCPCLQPYFSRCNSIRVESGCWMLYERPNYQGQQYLLRRGEYPDYQQWMGLSDSIRSC [N22C], for which the abundance fitness is -0.123 ± 0.31.
As to ITFYEDRAFQGRSYETTTDCPYLQPYFSRCNSIRVESGCWMLYERPNYQGQQYLLRRGEYPDYQQWMGLSDSIRSC [N22Y], the abundance fitness is 0.079 ± 0.14.
ITFYEDRAFQGRSYETTTDCPNLQPYFSRCNSIRVESGCWMLYERPNYQGQQYLLRRGEYPLYQQWMGLSDSIRSC [D62L]: the abundance fitness was -0.086 ± 0.085.
For ITFYEDRAFYGRSYETTTDCPNLQPYFSRCNSIRVESGCWMLYERPNYQGQQYLLRRGEYPDYQQWMGLSDSIRSC [Q10Y], the abundance fitness is -0.107 ± 0.22.
With ITFYEDRAFQGRSYETTTDCPNLQPYFSRCNSIRVESGCWMLYERPNYQGQQYLLRRGEYPDYQQWMGLSDIIRSC [S72I], the abundance fitness came to 0.007 ± 0.17.
In the case of ITFYEDRAFQGRSYETTTDCPNLQPYFSRCNSIRVESGCWMLYERPNYQGQQYLLRRGEYPDYQQWMGLSDGIRSC [S72G], the abundance fitness was 0.022 ± 0.054.
With ITFYEDRAFQGRSYETTTDCPNLQPYFSRCNSIRVESGCWMLYERPNYQGQQYLLRRGEYPDYQQWMGLSDMIRSC [S72M], the abundance fitness was 0.019 ± 0.11.
In the case of ITFYEDRAFQGRSYETTTDCPNLQPYFSRCNSIRVESGCWMLYERPNYQGQQYLLRRGEYPDYQQWMGLSDCIRSC [S72C], the abundance fitness was -0.082 ± 0.13.
As for ITFYEDRAFQGRSYETTTDCPNLQPYFSRCNSIRVESGCWMLYERPNYQGQQYLLRRGEYPDYQQWYGLSDSIRSC [M67Y], the figure is -0.067 ± 0.096; as for ITFYEDRAFQGRSYETTTDCPNLQPYFSRCNSIRVESGCWMLYERPNYQGQQYLLRRGEYPDYQQWNGLSDSIRSC [M67N], -0.065 ± 0.17; as for ITFYEDRAFQGRSYETTTDCPNLQPYFSRCNSIRVESGCWMLYERPNYQGQQYLLRRGEYPDYQQWMGLSDSIRSE [C76E], -0.795 ± 0.32.
Then ITFYEDRAFQGRSYETTTDCPNLQPYFSRCNSIRVESGCWMLYERPNYQGQQYLLRRGEYPDYQQWMGLSDSIRSD [C76D], with -0.834 ± 0.13; and ITFYEDRAFQGRSYETTTDCPNLQPYFSRCNSIRVESGCWMLYERPNYQGQQYLLRRGEYPDYQQWMGLSDSIRST [C76T], with -0.002 ± 0.15.
